The values that follow come from the supplement of paper PMC10567573.

B1: GNB5 (parent)
chain: DINSVRYYPSGDAFASGSDDATCR
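Note: lentivirally expressed fusions sorted by FACS into six bins by GFP to DsRed ratio, PSI derived from sequencing read proportions per bin multiplied by bin number.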

In the data set the parent is B1. Briefly: protein stability index of a GFP-peptide fusion (GPS, HEK-293T) (PSI 1-6); higher = more stable. To be noted: c terminus: a fixed tail appended.
Turning to DINSVRYYPSMDAFASGSDDATCR [G11M], the protein stability index was 4.02.
Consider DINSVRYYPSEDAFASGSDDATCR [G11E], for which the protein stability index was found to be 4.72.
In the case of DINSVRYYPSQDAFASGSDDATCR [G11Q], the protein stability index came out at 3.91.
DINSVRYYPSPDAFASGSDDATCR [G11P]: the protein stability index amounted to 3.93.
For the variant DINSVRYYPSFDAFASGSDDATCR [G11F], the protein stability index was determined as 3.61.
The value for DINSVRYYPSSDAFASGSDDATCR [G11S] was 4.09.
In the case of DINSVRYYPSHDAFASGSDDATCR [G11H] it was 3.62.
For the variant DINSVRYYPSNDAFASGSDDATCR [G11N], the protein stability index is 3.81.
For DINSVRYYPSIDAFASGSDDATCR [G11I], the protein stability index came to 3.59.
Consider DINSVRYYPSVDAFASGSDDATCR [G11V], for which the protein stability index was found to be 3.46.
Regarding DINSVRYYPSADAFASGSDDATCR [G11A], the protein stability index was 3.61.
For the variant DINSVRYYPSKDAFASGSDDATCR [G11K], the protein stability index stood at 3.68.
As to DINSVRYYPSYDAFASGSDDATCR [G11Y], the protein stability index was determined as 3.48.
On to DINSVRYYPSCDAFASGSDDATCR [G11C], for which the protein stability index was found to be 3.23.
In the case of DINSVRYYPSDDAFASGSDDATCR [G11D] it was 4.4; in that of DINSVRYYPSLDAFASGSDDATCR [G11L], 3.9; in that of DINSVRYYPSRDAFASGSDDATCR [G11R], 3.67.
In the case of DINSVRYYPSWDAFASGSDDATCR [G11W] it was 2.91.
Take DINSVRYYPSTDAFASGSDDATCR [G11T]: the protein stability index amounted to 3.74.
For the variant DINSVRYYPPGDAFASGSDDATCR [S10P], the protein stability index amounted to 4.23.
In the case of DINSVRYYPNGDAFASGSDDATCR [S10N] it was 3.95; in that of DINSVRYYPVGDAFASGSDDATCR [S10V], 3.73; in that of DINSVRYYPLGDAFASGSDDATCR [S10L], 3.43.
Take DINSVRYYPAGDAFASGSDDATCR [S10A]: the protein stability index stood at 3.76.
Turning to DINSVRYYPEGDAFASGSDDATCR [S10E], the protein stability index is 4.63.
Take DINSVRYYPFGDAFASGSDDATCR [S10F]: the protein stability index came to 3.3.
The value for DINSVRYYPKGDAFASGSDDATCR [S10K] was 3.71.
The value for DINSVRYYPYGDAFASGSDDATCR [S10Y] was 3.1; that for DINSVRYYPMGDAFASGSDDATCR [S10M] was 3.43; that for DINSVRYYPWGDAFASGSDDATCR [S10W] was 3.35.
The value for DINSVRYYPHGDAFASGSDDATCR [S10H] was 3.65; that for DINSVRYYPDGDAFASGSDDATCR [S10D] was 4.32; that for DINSVRYYPIGDAFASGSDDATCR [S10I] was 3.76.
Take DINSVRYYPRGDAFASGSDDATCR [S10R]: the protein stability index worked out at 3.4.
In the case of DINSVRYYPGGDAFASGSDDATCR [S10G] it was 4.35.
With DINSVRYYPQGDAFASGSDDATCR [S10Q], the protein stability index came out at 4.08.
For the variant DINSVRYYPCGDAFASGSDDATCR [S10C], the protein stability index amounted to 3.49.
For the variant DINSVRYYPTGDAFASGSDDATCR [S10T], the protein stability index stood at 3.68.
With DINSVRYYVSGDAFASGSDDATCR [P9V], the protein stability index came out at 3.62.
Turning to DINSVRYYHSGDAFASGSDDATCR [P9H], the protein stability index came to 3.52.
The value for DINSVRYYCSGDAFASGSDDATCR [P9C] was 3.17; that for DINSVRYYESGDAFASGSDDATCR [P9E] was 4.16; that for DINSVRYYTSGDAFASGSDDATCR [P9T] was 4.02.
Turning to DINSVRYYLSGDAFASGSDDATCR [P9L], the protein stability index worked out at 3.26.
On to DINSVRYYSSGDAFASGSDDATCR [P9S], for which the protein stability index worked out at 4.17.
Consider DINSVRYYMSGDAFASGSDDATCR [P9M], for which the protein stability index was determined as 3.3.
For the variant DINSVRYYYSGDAFASGSDDATCR [P9Y], the protein stability index came to 3.35.
In the case of DINSVRYYRSGDAFASGSDDATCR [P9R] it was 3.69.
For the variant DINSVRYYQSGDAFASGSDDATCR [P9Q], the protein stability index worked out at 3.8.
Take DINSVRYYWSGDAFASGSDDATCR [P9W]: the protein stability index was found to be 3.23.
For DINSVRYYGSGDAFASGSDDATCR [P9G], the protein stability index was determined as 4.13.
As for DINSVRYYFSGDAFASGSDDATCR [P9F], the protein stability index was found to be 2.74.
With DINSVRYYKSGDAFASGSDDATCR [P9K], the protein stability index worked out at 3.62.
In the case of DINSVRYYDSGDAFASGSDDATCR [P9D] it was 4.43; in that of DINSVRYYASGDAFASGSDDATCR [P9A], 3.59.
In the case of DINSVRYYNSGDAFASGSDDATCR [P9N] it was 3.82; in that of DINSVRYYISGDAFASGSDDATCR [P9I], 2.7.
With DINSVRYPPSGDAFASGSDDATCR [Y8P], the protein stability index came to 4.63.
DINSVRYMPSGDAFASGSDDATCR [Y8M]: the protein stability index is 4.55.
Take DINSVRYTPSGDAFASGSDDATCR [Y8T]: the protein stability index was 4.45.
In the case of DINSVRYCPSGDAFASGSDDATCR [Y8C], the protein stability index was found to be 4.43.
DINSVRYNPSGDAFASGSDDATCR [Y8N]: the protein stability index is 4.34.
For the variant DINSVRYSPSGDAFASGSDDATCR [Y8S], the protein stability index amounted to 3.94.
The value for DINSVRYVPSGDAFASGSDDATCR [Y8V] was 4.55.
As for DINSVRYEPSGDAFASGSDDATCR [Y8E], the protein stability index was determined as 4.8.
With DINSVRYDPSGDAFASGSDDATCR [Y8D], the protein stability index was 4.87.
DINSVRYFPSGDAFASGSDDATCR [Y8F]: the protein stability index was 3.82.
Take DINSVRYWPSGDAFASGSDDATCR [Y8W]: the protein stability index came out at 4.24.
Take DINSVRYRPSGDAFASGSDDATCR [Y8R]: the protein stability index stood at 4.65.
With DINSVRYQPSGDAFASGSDDATCR [Y8Q], the protein stability index came to 4.77.
With DINSVRYLPSGDAFASGSDDATCR [Y8L], the protein stability index turned out to be 4.39.
The value for DINSVRYAPSGDAFASGSDDATCR [Y8A] was 4.49; that for DINSVRYKPSGDAFASGSDDATCR [Y8K] was 3.79.
On to DINSVRYHPSGDAFASGSDDATCR [Y8H], for which the protein stability index came to 3.78.
The value for DINSVRYGPSGDAFASGSDDATCR [Y8G] was 4.43; that for DINSVRYIPSGDAFASGSDDATCR [Y8I] was 4.5.
For DINSWRYYPSGDAFASGSDDATCR [V5W], the protein stability index came out at 3.88.
For DINSFRYYPSGDAFASGSDDATCR [V5F], the protein stability index turned out to be 3.74.
Turning to DINSNRYYPSGDAFASGSDDATCR [V5N], the protein stability index came to 3.46.
For DINSGRYYPSGDAFASGSDDATCR [V5G], the protein stability index turned out to be 3.77.
As for DINSKRYYPSGDAFASGSDDATCR [V5K], the protein stability index stood at 3.91.
On to DINSDRYYPSGDAFASGSDDATCR [V5D], for which the protein stability index worked out at 4.41.
On to DINSSRYYPSGDAFASGSDDATCR [V5S], for which the protein stability index was determined as 4.26.
In the case of DINSMRYYPSGDAFASGSDDATCR [V5M] it was 3.92; in that of DINSRRYYPSGDAFASGSDDATCR [V5R], 3.73; in that of DINSLRYYPSGDAFASGSDDATCR [V5L], 3.49.
The value for DINSHRYYPSGDAFASGSDDATCR [V5H] was 3.91; that for DINSARYYPSGDAFASGSDDATCR [V5A] was 4.38; that for DINSTRYYPSGDAFASGSDDATCR [V5T] was 4.28.
Regarding DINSIRYYPSGDAFASGSDDATCR [V5I], the protein stability index was 4.19.
On to DINSYRYYPSGDAFASGSDDATCR [V5Y], for which the protein stability index was 3.6.
In the case of DINSERYYPSGDAFASGSDDATCR [V5E] it was 4.61.
DINSPRYYPSGDAFASGSDDATCR [V5P]: the protein stability index was determined as 4.51.
In the case of DINSQRYYPSGDAFASGSDDATCR [V5Q] it was 3.85.
